Experimental data: patent US20250304651A1 (ACADEMISCH ZIEKENHUIS LEIDEN H O D N LEIDS UNIVERSITAIR …, published 2025)

T1: ΔNPM1 (mutant NPM1; dNPM1) peptide on HLA-A*11:01 (human)
T1 peptide: AVEEVSLRK

T2: ΔNPM1 (mutant NPM1; dNPM1) peptide on HLA-A*03:01 (human)
T2 peptide: AVEEVSLRK

T3: ΔNPM1 (mutant NPM1; dNPM1) peptide on HLA-A*03:01 (human)
T3 peptide: CLAVEEVSLRK


Assays:
[1] = molecular target: T4, HLA-A*03:01 (monomer for refolding) (human); assay: monomer refolding
T4 construct: Monomer production is described in detail only for HLA-A*02:01

[2] = molecular target: T5, HLA-A*11:01 (monomer for refolding) (human); assay: monomer refolding
T5 construct: Monomer production is described in detail only for HLA-A*02:01

[3] = molecular target: HLA-A*02:01 (recombinant heavy chain with human β2-microglobulin, monomer) (human); assay: monomer refolding
[4] = molecular target: T1, ΔNPM1 (mutant NPM1; dNPM1) peptide on …; assay: cytokine release
[5] = molecular target: T2, ΔNPM1 (mutant NPM1; dNPM1) peptide on …; assay: multimer staining
[6] = molecular target: T3, ΔNPM1 (mutant NPM1; dNPM1) peptide on …; assay: multimer staining
[7] = molecular target: T2, ΔNPM1 (mutant NPM1; dNPM1) peptide on …; assay: cytokine release
[8] = molecular target: T1, ΔNPM1 (mutant NPM1; dNPM1) peptide on …; assay: multimer staining
[9] = molecular target: T6, HLA-A*01:01 (monomer for refolding) (human); assay: monomer folding for tetramer production
T6 construct: Monomer production is described in detail only for HLA-A*02:01

Row | binding result [1] | binding result [2] | binding result [7] | binding result [8] | Binder | further results
1 | binds | binds |  |  | CLAVEEVSLRK (Synthetic peptide) [ΔNPM1 peptide CLAVEEVSLRK] | 
2 |  |  |  |  | CLAVEEVSL (Synthetic peptide) [ΔNPM1 peptide CLAVEEVSL] | binding result [3]: binds
3 |  |  |  |  | dNPM1-A*03:01 TCR (clone 31.3.F1) (TCR, V domains shown) Valpha: QKEVEQNSGPLSVPEGAIASLNCTYSDRGSQSFFWYRQYSGKSPELIMSIYSNGDKEDGRFTAQLNKASQYVSLLIRDSQPSDSATYLCALSGGGQNFVFGPGTRLSVLP Vbeta: EAGVTQFPSHSVIEKGQTVTLRCDPISGHDNLYWYRRVMGKEIKFLLHFVKESKQDESGMPNNRFLAERTGGTYSTLKVQPAELEDSGVYFCASSQGSGFRHFGDGTRLSIL | binding result [4]: no recognition; binding result [5]: recognises; binding result [6]: no recognition
4 |  |  | no recognition | recognises | dNPM1-A*11:01 TCR (clone 6F11) (TCR, V domains shown) Valpha: AQSVTQLDSQVPVFEEAPVELRCNYSSSVSVYLFWYVQYPNQGLQLLLKYLSGSTLVKGINGFEAEFNKSQTSFHLRKPSVHISDTAEYFCAVSPAGNQFYFGTGTSLTVIP Vbeta: GAGVSQSPRYKVTKRGQDVALRCDPISGHVSLYWYRQALGQGPEFLTYFNYEAQQDKSGLPNDRFSAERPEGSISTLTIQRTEQRDSAMYRCASSLGSNQPQHFGDGTRLSIL | 
5 |  |  | no recognition | recognises | dNPM1-A*11:01 TCR (clone 26.2.D6) (TCR, V domains shown) Valpha: GEDVEQSLFLSVREGDSSVINCTYTDSSSTYLYWYKQEPGAGLQLLTYIFSNMDMKQDQRLTVLLNKKDKHLSLRIADTQTGDSAIYFCAESKGQNFVFGPGTRLSVLP Vbeta: DGGITQSPKYLFRKEGQNVTLSCEQNLNHDAMYWYRQDPGQGLRLIYYSHIVNDFQKGDIAEGYSVSREKKESFPLTVTSAQKNPTAFYLCASTTWGTGGHEQYFGPGTRLTVT | 
6 | binds | binds |  |  | AVEEVSLRK (Eluted natural ligand in the ligandome work) [ΔNPM1 peptide AVEEVSLRK] | binding result [9]: binds
